Measured values published in article PMC7073461.

Target: T7 DNAP (complex of T7 gp5 and Escherichia coli thioredoxin) (bacteriophage T7 | Escherichia coli) (UniProt P00581)
Chain of UniProt P00581 (P00581 whole entry, chain 1 of 2): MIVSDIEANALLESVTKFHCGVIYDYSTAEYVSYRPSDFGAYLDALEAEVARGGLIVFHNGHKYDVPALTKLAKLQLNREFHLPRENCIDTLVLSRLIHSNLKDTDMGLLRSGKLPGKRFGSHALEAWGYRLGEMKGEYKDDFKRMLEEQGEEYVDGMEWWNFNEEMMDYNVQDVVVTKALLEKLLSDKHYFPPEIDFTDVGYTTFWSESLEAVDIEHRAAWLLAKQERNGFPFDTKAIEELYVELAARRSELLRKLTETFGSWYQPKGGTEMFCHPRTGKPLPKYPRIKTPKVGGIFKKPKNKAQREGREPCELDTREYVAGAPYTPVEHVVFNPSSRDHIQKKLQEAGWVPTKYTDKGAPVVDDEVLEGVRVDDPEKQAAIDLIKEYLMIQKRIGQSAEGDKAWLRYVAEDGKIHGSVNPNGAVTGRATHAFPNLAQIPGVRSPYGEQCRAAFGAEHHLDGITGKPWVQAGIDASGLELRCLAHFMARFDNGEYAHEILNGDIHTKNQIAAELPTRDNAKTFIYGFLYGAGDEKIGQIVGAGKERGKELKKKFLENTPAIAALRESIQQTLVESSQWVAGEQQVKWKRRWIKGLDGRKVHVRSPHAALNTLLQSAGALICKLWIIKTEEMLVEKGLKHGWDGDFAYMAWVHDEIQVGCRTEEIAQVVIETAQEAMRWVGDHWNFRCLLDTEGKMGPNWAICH
Chain of UniProt P00581 (P0AA25 whole entry, chain 2 of 2, further chain): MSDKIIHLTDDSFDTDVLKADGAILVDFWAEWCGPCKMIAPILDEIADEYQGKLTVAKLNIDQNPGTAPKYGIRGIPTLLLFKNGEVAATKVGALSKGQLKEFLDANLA

Pol/Exo ratio (nucleotides incorporated per nucleotide excised) during leading strand synthesis on minicircle DNA, 150 μM dVTPs and 500 μM dTTP; 50–60% lower than with the WT T7 helicase: 5.7
Substance: C-tail mutant of T7 gp4A′ (T7 HelicaseΔC17) (enzyme)
